Assay results: patent publication US20250215100A1 (HARBOUR BIOMED SHANGHAI, published 2025)

Experiments:
[1] = target: T1, cynomolgus monkey CD40 on cells (cynomolgus monkey, UniProt G7PG38 21-278); assay: FACS, CHO-K1/cyCD40 cells
T1 construct: also called cyCD40; CHO-K1/cyCD40
Description: (§1) Flow cytometry (FACS) was used to detect the binding ability of the CD40 antibody to cells, such as, CHO-K1/hCD40 highly expressing human CD40 (constructed by Beijing Kyinno Biotechnology), CHO-K1/cyCD40 highly expressing cynomolgus monkey CD40 (constructed by Beijing Kyinno Biotechnology) and lymphoma cell highly expressing human CD40, Raji (ATCC, #CCL-86). Specifically, the cells were digested and resuspended with complete medium (F-12K for CHO-K1 cells; and RPMI-1640 for Raji cells); and the cells were adjusted to a cell density of 1×10⁶ cells/mL. The cells were seeded in a 96-well V-bottom plate (Corning, #3894) at 100 μL/well, and the antigen binding protein to be tested at 2x final concentration was then added at 100 μL/well and mixed evenly, with the highest final concentration of the antigen binding protein of 300 nM, a total of 8 concentrations, and 5-fold concentration gradient dilution. hIgG (Crownbio, #C0002) was used as a negative control, and the positive control molecule was the molecule in Table 1-5. The cells were incubated at 4° C. for 1 hours in the dark. After the incubation, the cells were rinsed twice by adding pre-chilled PBS at 100 μL/well, and centrifuged at 500 g at 4° C. for 5 minutes, and the supernatant was discarded. Then, a fluorescent secondary antibody (goat anti-human IgG (H+L) secondary antibody, Alexa Fluor® 488 conjugate, Invitrogen, #A11013, 1:1000 dilution) was added at 100 µL/well, and the cells were incubated at 4° C. for 30 minutes in the dark. The cells were washed twice with pre-chilled PBS at 200 μL/well, and centrifuged at 500 g at 4° C. for 5 minutes, and the supernatant was discarded. Finally, the cells were resuspended in pre-chilled PBS at 200 μL/well. The fluorescence signal values were read using a BD FACS CANTOII flow cytometer or ACEA NovoCyte flow cytometer, and the data were processed and analyzed using FlowJo v10 software (FlowJo, LLC).
(§2) Data processing and graphical analysis were performed using GraphPad Prism 8 software. The binding curve of the antibody to the target cell and parameters, such as EC50 value were obtained by four-parameter nonlinear fitting.

[2] = target: T2, human CD40 on cells (human, UniProt P25942 21-277); assay: FACS, CHO-K1/hCD40 cells
T2 construct: whole, on cells; The cell line used is named in each row's assay; also called hCD40; TNFRSF5
T2 sequence (P25942 21-277): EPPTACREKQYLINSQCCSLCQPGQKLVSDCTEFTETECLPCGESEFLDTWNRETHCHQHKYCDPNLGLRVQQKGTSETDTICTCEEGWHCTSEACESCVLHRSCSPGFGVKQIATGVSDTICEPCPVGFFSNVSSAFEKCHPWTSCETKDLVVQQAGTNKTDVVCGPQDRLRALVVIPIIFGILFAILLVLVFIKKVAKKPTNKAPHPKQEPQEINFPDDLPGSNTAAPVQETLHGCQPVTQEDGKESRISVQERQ
Description: as §1, §2

[3] = target: T2, human CD40 on cells; assay: cell-based or functional assay
[4] = target: T2, human CD40 on cells; assay: FACS, inhibition of human CD40L-his binding to CHO-K1/hCD40 cells
Description: To detect the effect of CD40 antibodies on the binding of CD40 to CD40L, CHO-K1/hCD40 cells were plated at 2×10⁵/well or 100 μL/well into a 96-well plate (Corning, #3799) and centrifuged, and the supernatant was taken and the dilution solution of the antigen binding protein to be tested was added at 50 μL/well with an initial concentration of 500 nM, 5-fold concentration dilution and a total of 8 concentrations. 20 μg/mL of human CD40L-his protein (Sino biological, #10239-H08E) was added at 50 μL/well, the cells were incubated at 4° C. for 1 hour and then washed 3 times with FACS buffer (1×PBS with 2% FBS). 1:400 diluted anti-histidine tag secondary antibody (GenScript, #A01800) was added, and the cells were incubated at 4° C. for 1 hour, then washed 2 times with FACS buffer, and resuspended in pre-chilled PBS. The fluorescence signal values were read using a BD FACS CANTOII flow cytometer or ACEA NovoCyte flow cytometer, and the data were processed and analyzed using FlowJo v10 software (FlowJo, LLC).
Data processing and graphical analysis were performed using GraphPad Prism 8 software. The curve of the antibody concentration-dependent inhibition rate and parameters, such as IC50 value were obtained by four-parameter nonlinear fitting.

[5] = target: T2, human CD40 on cells; assay: FACS, Raji cells
Description: as §1, §2

[6] = target: T3, human CD40 protein (human, UniProt P25942 21-193, limits assumed); assay: BLI (Octet Red 96e), antibody captured on AHC sensor, human CD40 protein in solution, 1:1 global fit
T3 construct: the construct is not described
T3 sequence (P25942 21-193 limits assumed): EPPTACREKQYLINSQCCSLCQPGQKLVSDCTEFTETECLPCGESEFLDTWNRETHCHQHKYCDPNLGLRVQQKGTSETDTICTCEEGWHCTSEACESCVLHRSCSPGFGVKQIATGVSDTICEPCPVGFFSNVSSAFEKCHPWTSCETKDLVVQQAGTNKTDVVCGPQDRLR
Description: To detect the affinity of CD40 antibodies for antigens such as human CD40 protein, the binding kinetics between antigen and antibody was analyzed using an Octet Red 96e (Fortebio) molecular interaction analyzer by biolayer interferometry (BLI) technique.
For determining the affinity of antibodies for antigens, the rotary speed of the sensor was set at 1000 rpm. […] The AHC sensors were finally regenerated by immersing in a 10 mM glycine-hydrochloric acid solution with pH 1.5 to elute the protein bound to the sensors.
For data analysis using Octet Data Analysis software (Fortebio, version 11.0), 0 nM well was used as the reference well, reference subtraction was performed, “1:1 Global fitting” method was selected for data fitting, the kinetic parameters of the binding of the antigen to the CD40 antibodies were calculated, and the kon (1/Ms) value, kdis (1/s) value and KD (M) value were obtained.

T1 sequence (G7PG38 entry or part of it limits assumed): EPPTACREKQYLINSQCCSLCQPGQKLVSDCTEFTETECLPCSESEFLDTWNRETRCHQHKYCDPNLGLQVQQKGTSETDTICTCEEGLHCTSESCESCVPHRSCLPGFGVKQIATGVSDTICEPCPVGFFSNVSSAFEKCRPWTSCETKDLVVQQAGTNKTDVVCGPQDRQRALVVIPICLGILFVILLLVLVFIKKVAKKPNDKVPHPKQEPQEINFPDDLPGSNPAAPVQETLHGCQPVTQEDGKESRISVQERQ

EC50 [1] [nM] | Maximum MFI [1] [MFI] | EC50 [2] [nM] | Maximum MFI [2] [MFI] | EC50 (nM), crosslinked (CHO-K1/hCD32B), HEK293-hCD40-NFkB reporter [3] [nM] | EC50 (nM), uncrosslinked, HEK293-hCD40-NFkB reporter [3] [nM] | Maximum RLU, crosslinked (CHO-K1/hCD32B), HEK293-hCD40-NFkB reporter [3] [RLU] | Maximum RLU, uncrosslinked, HEK293-hCD40-NFkB reporter [3] [RLU] | RLU fold (crosslinked/uncrosslinked) [3] [fold] | IC50 [4] [nM] | Maximum inhibition rate (%) [4] [%] | EC50 [5] [nM] | Maximum MFI [5] [MFI] | Kd [6] [nM] | koff [6] [s⁻¹] | kon [6] [M⁻¹ s⁻¹] | Binder
5.54 | 39700 | 12.2 | 29200 | 0.0506 | 0.0371 | 22600 | 20000 | 1.13 | 4.4 | 24 | 0.028 | 614 | 0.525 | 0.00057 | 1.09e+06 | PR001306 (CDX-1140) (antibody, human IgG2, kappa, V domains shown, CD40 positive control antibody) VH: QVQLVESGGGVVQPGKSLRLSCAASGFTFSSNGIHWVRQAPGKGLEWVAVIWSDGSNKFYADSVKGRFTISRDNSKNTLYLQMNSLRAEDTAVYYCARASGSGSYYNFFDYWGQGTLVTVSS VL: EIVMTQSPATLSVSPGERATLSCRASQSVRSNLAWYQQKPGQAPRLLIYGASTRATGIPARFSGSGSGTEFTLTINSLQSEDFAVYYCQQHNKWITFGQGTRLEIKR
3.88 | 117000 | 6.34 | 81600 | 0.178 | 0.369 | 19700 | 8250 | 2.38 | 17 | 41.9 | 0.0699 | 3700 | 0.138 | 0.000144 | 1.04e+06 | PR003379 (antibody, human IgG2, kappa, Fully human recombinant IgG2, kappa light chain; from Harbour H2L2 mice; also called 18C4A12-1B1 (clone No.)) heavy: QVQLVQSGAEVKKPGASVKVSCKASGYTFAGYYMYWVRQAPGQGLEWMGWINPDSGAPTYAQKFQGRVTMTRDTSISTAYMELSRLRSDDTAVYYCAREKIYYGSGNYYPSFDYWGQGTLVTVSSASTKGPSVFPLAPCSRSTSESTAALGCLVKDYFPEPVTVSWNSGALTSGVHTFPAVLQSSGLYSLSSVVTVPSSNFGTQTYTCNVDHKPSNTKVDKTVERKCCVECPPCPAPPVAGPSVFLFPPKPKDTLMISRTPEVTCVVVDVSHEDPEVQFNWYVDGVEVHNAKTKPREEQFNSTFRVVSVLTVVHQDWLNGKEYKCKVSNKGLPAPIEKTISKTKGQPREPQVYTLPPSREEMTKNQVSLTCLVKGFYPSDIAVEWESNGQPENNYKTTPPMLDSDGSFFLYSKLTVDKSRWQQGNVFSCSVMHEALHNHYTQKSLSLSPGK light: DIQLTQSPSFLSASVGDRVTITCRASQGISSYLAWYQQKPGKAPKLLIYAASTLQSGVPSRFSGSGSGTEFTLTISSLQPEDFATYYCQQLNSYPWTFGQGTKVEIKRTVAAPSVFIFPPSDEQLKSGTASVVCLLNNFYPREAKVQWKVDNALQSGNSQESVTEQDSKDSTYSLSSTLTLSKADYEKHKVYACEVTHQGLSSPVTKSFNRGEC
 |  |  |  | 0.042 | 0.355 | 23200 | 11900 | 1.95 | 10 | 26 |  |  | 7.14 | 0.00264 | 369000 | PR001304 (APX005M) (antibody, human IgG1, kappa, CD40 positive control antibody) heavy: not shown light: DIQMTQSPSSLSASVGDRVTIKCQASQSISSRLAWYQQKPGKPPKLLIYRASTLASGVPSRFSGSGSGTDFTLTISSLQPEDVATYYCQCTGYGISWPIGGGTKVEIKRTVAAPSVFIFPPSDEQLKSGTASVVCLLNNFYPREAKVQWKVDNALQSGNSQESVTEQDSKDSTYSLSSTLTLSKADYEKHKVYACEVTHQGLSSPVTKSFNRGEC
